Data: US11814447B2, “Peptide ligands for binding to EphA2” (BICYCLERD LIMITED, priority 2018, dated 2023)
Starred links: 1 amine or outer side, 2 acyl side, 3 side chain; linkers in the order of their positions; H or OH if unused. Positions of bridges follow the written chain, without caps; N, C: chain ends. Non-standard residues stand in square brackets, D forms with d. Primed or numbered codes have the meaning given here. No end group written: not given here. TBMB′ = 1,3,5-tris(bromomethyl)benzene, 1,3,5-tris(methylene)benzene core, three thioethers to Cys; 1Nal = N[C@@H](Cc1cccc2ccccc12)C(=O)O; TBMB = c1c(C[*:1])cc(C[*:3])cc1C[*:2]; Gly(cPent) = N[C@H](C(=O)O)C1CCCC1; hArg = N=C(N)NCCCC[C@H](N)C(=O)O; Tle = CC(C)(C)[C@H](N)C(=O)O; Aib = CC(C)(N)C(=O)O; βAla = NCCC(=O)O; Sar = CNCC(=O)O

B1: Bicycle Compound 291 (peptide)
peptide: [Sar][Sar]ACPWGPFWCAVNRPGC
modifications: linker 4-11-18 via TBMB
B2: Bicycle Compound 289 (peptide)
peptide: [Sar][Sar]ACPWGAFWCPVNRPGC
modifications: linker 4-11-18 via TBMB
B3: Bicycle Compound 102 (peptide)
peptide: [Sar][Sar]ACPWGPFWCPV[dA]RPGC
modifications: linker 4-11-18 via TBMB
B4: Bicycle Compound 173 (peptide)
peptide: Ac-[Sar][Sar]A[dD]VTCPWGPAWCPVNRPGC
modifications: linker 7-14-21 via TBMB′
B5: Bicycle Compound 247 (peptide)
peptide: [βAla][Sar][Sar][Sar][Sar][Sar][Sar][Sar][Sar][Sar][Sar]H[dD]VPC[Aib]WGP[hArg]WCP[Tle]N[hArg]P[dD]C
modifications: linker 16-23-30 via TBMB
B6: Bicycle Compound 280 (peptide)
peptide: [βAla][Sar][Sar][Sar][Sar][Sar][Sar][Sar][Sar][Sar][Sar]H[dD][Gly(cPent)]TCP[1Nal]G[Aib]F[1Nal]CP[Tle]N[hArg]P[dD]C
modifications: linker 16-23-30 via TBMB
B7: Bicycle Compound 248 (peptide)
peptide: [βAla][Sar][Sar][Sar][Sar][Sar][Sar][Sar][Sar][Sar][Sar]H[dD]VPC[dA][1Nal]G[Aib]F[1Nal]CP[Tle]N[hArg]P[dD]C
modifications: linker 16-23-30 via TBMB
B8: Bicycle Compound 249 (peptide)
peptide: [βAla][Sar][Sar][Sar][Sar][Sar][Sar][Sar][Sar][Sar][Sar]H[dD]VPCP[1Nal]G[Aib][hArg][1Nal]CP[Tle]NR[Aib]GC
modifications: linker 16-23-30 via TBMB
B9: Bicycle Compound 250 (peptide)
peptide: [βAla][Sar][Sar][Sar][Sar][Sar][Sar][Sar][Sar][Sar][Sar]H[dD]VPCP[1Nal]G[Aib][hArg][1Nal]CP[Tle]NR[Aib][dD]C
modifications: linker 16-23-30 via TBMB
B10: Bicycle Compound 111 (peptide)
peptide: [Sar][Sar]ACPWGPFWCPVNRPAC
modifications: linker 4-11-18 via TBMB
B11: Bicycle Compound 302 (peptide)
peptide: [Sar][Sar]ACPWGPFWCPVN[dA]PGC
modifications: linker 4-11-18 via TBMB
B12: Bicycle Compound 271 (peptide)
peptide: [βAla][Sar][Sar][Sar][Sar][Sar][Sar][Sar][Sar][Sar][Sar]H[dD]VPCPWG[Aib]FWCP[Tle]N[hArg]P[dD]C
modifications: linker 16-23-30 via TBMB
B13: Bicycle Compound 244 (peptide)
peptide: [βAla][Sar][Sar][Sar][Sar][Sar][Sar][Sar][Sar][Sar][Sar]H[dD]VPC[Aib][1Nal]GP[hArg][1Nal]CP[Tle]N[hArg]P[dD]C
modifications: linker 16-23-30 via TBMB
B14: Bicycle Compound 285 (peptide)
peptide: Ac-[Sar][Sar]H[dD]VTCP[1Nal]G[Aib]F[1Nal]CP[Tle]NR[Aib]GC
modifications: linker 7-14-21 via TBMB
B15: Bicycle Compound 83 (peptide)
peptide: [Sar][Sar]ACPWGPAWCPVNRPGC
modifications: linker 4-11-18 via TBMB
B16: Bicycle Compound 272 (peptide)
peptide: [βAla][Sar][Sar][Sar][Sar][Sar][Sar][Sar][Sar][Sar][Sar]H[dD]VPCPWGP[hArg]WCP[Tle]N[hArg]P[dD]C
modifications: linker 16-23-30 via TBMB
B17: Bicycle Compound 253 (peptide)
peptide: Ac-[Sar][Sar]H[dD]VPCP[1Nal]G[Aib]F[1Nal]CP[Tle]N[hArg]PGC
modifications: linker 7-14-21 via TBMB
B18: Bicycle Compound 293 (peptide)
peptide: [Sar][Sar]ACPWGPFWCPVNAPGC
modifications: linker 4-11-18 via TBMB
B19: Bicycle Compound 246 (peptide)
peptide: [βAla][Sar][Sar][Sar][Sar][Sar][Sar][Sar][Sar][Sar][Sar]H[dD]VPC[Aib]WGP[hArg]WCP[Tle]N[hArg]P[dD]C
modifications: linker 16-23-30 via TBMB
B20: Bicycle Compound 104 (peptide)
peptide: [Sar][Sar]ACPWGPFWCPVNRAGC
modifications: linker 4-11-18 via TBMB
B21: Bicycle Compound 259 (peptide)
peptide: [βAla][Sar][Sar][Sar][Sar][Sar][Sar][Sar][Sar][Sar][Sar]H[dD]VPCP[1Nal]G[Aib]F[1Nal]CP[Tle]N[hArg][Aib][dD]C
modifications: linker 16-23-30 via TBMB
B22: Bicycle Compound 257 (peptide)
peptide: [βAla][Sar][Sar][Sar][Sar][Sar][Sar][Sar][Sar][Sar][Sar]H[dD]VPCP[1Nal]G[Aib]F[1Nal]CP[Tle]N[hArg]PGC
modifications: linker 16-23-30 via TBMB
B23: Bicycle Compound 296 (peptide)
peptide: [Sar][Sar]ACPW[dA]PFWCPVNRPGC
modifications: linker 4-11-18 via TBMB
B24: Bicycle Compound 275 (peptide)
peptide: [βAla][Sar][Sar][Sar][Sar][Sar][Sar][Sar][Sar][Sar][Sar]H[dD][Gly(cPent)]PC[Aib]WG[Aib]FWCP[Tle]NR[Aib][dD]C
modifications: linker 16-23-30 via TBMB
B25: Bicycle Compound 292 (peptide)
peptide: [Sar][Sar]ACPWGPFWCPANRPGC
modifications: linker 4-11-18 via TBMB
B26: Bicycle Compound 297 (peptide)
peptide: [Sar][Sar]ACPWG[dA]FWCPVNRPGC
modifications: linker 4-11-18 via TBMB
B27: Bicycle Compound 151 (peptide)
peptide: ADVHCPWAPFWCPVNRPGCA
modifications: linker 5-12-19 via TBMB
B28: Bicycle Compound 155 (peptide)
peptide: ADVHCPWGPFWCPV[dA]RPGCA
modifications: linker 5-12-19 via TBMB
B29: Bicycle Compound 156 (peptide)
peptide: ADVHCPWGPFWCPVN[dA]PGCA
modifications: linker 5-12-19 via TBMB
B30: Bicycle Compound 152 (peptide)
peptide: ADVHCPWGAFWCPVNRPGCA
modifications: linker 5-12-19 via TBMB
B31: Bicycle Compound 278 (peptide)
peptide: [βAla][Sar][Sar][Sar][Sar][Sar][Sar][Sar][Sar][Sar][Sar]H[dD][Gly(cPent)]PCP[1Nal]G[Aib]F[1Nal]CP[Tle]NR[Aib]GC
modifications: linker 16-23-30 via TBMB
B32: Bicycle Compound 251 (peptide)
peptide: [βAla][Sar][Sar][Sar][Sar][Sar][Sar][Sar][Sar][Sar][Sar]H[dD]VPCP[1Nal]G[Aib][hArg][1Nal]CP[Tle]N[hArg]P[dD]C
modifications: linker 16-23-30 via TBMB
B33: Bicycle Compound 252 (peptide)
peptide: [βAla][Sar][Sar][Sar][Sar][Sar][Sar][Sar][Sar][Sar][Sar]H[dD]VPCP[1Nal]G[Aib]F[1Nal]CP[Tle]NRPGC
modifications: linker 16-23-30 via TBMB
B34: Bicycle Compound 265 (peptide)
peptide: [βAla][Sar][Sar][Sar][Sar][Sar][Sar][Sar][Sar][Sar][Sar]H[dD]VPCP[1Nal]G[Aib]FWCP[Tle]N[hArg]P[dD]C
modifications: linker 16-23-30 via TBMB
B35: Bicycle Compound 286 (peptide)
peptide: [Sar][Sar]ACAWGPFWCPVNRPGC
modifications: linker 4-11-18 via TBMB
B36: Bicycle Compound 269 (peptide)
peptide: [βAla][Sar][Sar][Sar][Sar][Sar][Sar][Sar][Sar][Sar][Sar]H[dD]VPCPWG[Aib]F[1Nal]CP[Tle]N[hArg]P[dD]C
modifications: linker 16-23-30 via TBMB
B37: Bicycle Compound 101 (peptide)
peptide: [Sar][Sar]ACPWGPFWCPVARPGC
modifications: linker 4-11-18 via TBMB
B38: Bicycle Compound 279 (peptide)
peptide: [βAla][Sar][Sar][Sar][Sar][Sar][Sar][Sar][Sar][Sar][Sar]H[dD][Gly(cPent)]TCP[1Nal]G[Aib]F[1Nal]CP[Tle]NR[Aib]GC
modifications: linker 16-23-30 via TBMB

Tests used:
Human EphA2 (Ecto) [1] = biological target: T1, Human EphA2 (Ecto) (Human, UniProt P29317 24-537); assay: FP competition, tracer Compound 18
T1 construct: extracellular domain
T1 sequence (P29317 24-537): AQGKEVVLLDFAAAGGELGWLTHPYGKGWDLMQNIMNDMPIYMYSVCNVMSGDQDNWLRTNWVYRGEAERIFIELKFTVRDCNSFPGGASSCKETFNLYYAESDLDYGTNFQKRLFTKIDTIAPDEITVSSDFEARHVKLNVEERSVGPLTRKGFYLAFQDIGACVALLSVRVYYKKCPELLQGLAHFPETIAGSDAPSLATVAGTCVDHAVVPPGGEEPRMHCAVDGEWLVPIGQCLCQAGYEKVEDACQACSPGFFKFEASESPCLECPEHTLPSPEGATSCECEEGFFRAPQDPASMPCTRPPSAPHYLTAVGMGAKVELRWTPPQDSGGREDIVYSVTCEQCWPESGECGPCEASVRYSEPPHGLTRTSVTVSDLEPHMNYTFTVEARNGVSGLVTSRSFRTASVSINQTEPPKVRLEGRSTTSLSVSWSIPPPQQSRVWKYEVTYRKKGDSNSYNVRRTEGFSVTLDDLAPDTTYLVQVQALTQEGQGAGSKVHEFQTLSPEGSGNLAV
Description: (§1) Peptides without a fluorescent tag were tested in competition with a peptide with a fluorescent tag and a known Kd (Table 2). Peptides were diluted to an appropriate concentration in assay buffer as described in the direct binding assay with a maximum of 5% DMSO, then serially diluted 1 in 2. […] Measurements were conducted as for the direct binding assay, however the gain was determined prior to the first measurement. Data analysis was in Systat Sigmaplot version 12.0 where the mP values were fit to a user defined cubic equation to generate a Ki value: […]

Human EphA2 (Ecto) [2] = biological target: T1, Human EphA2 (Ecto); assay: FP competition, tracer Compound 66
Human EphA2 (Ecto) [3] = biological target: T1, Human EphA2 (Ecto); assay: FP competition, tracer Compound 18; remark: listed apart in the source
Description: as §1

[4] = biological target: Human EphA2 (Ecto) (Human) (UniProt P29317); assay: FP competition, tracer Compound 18
Sequence of Human EphA2 (Ecto) (Human) (P29317 24-537): as above

| Binder | Ki (Human EphA2 (Ecto) [1]) [nM] | Ki (Human EphA2 (Ecto) [2]) [nM] | Ki [4] [nM] | other results |
| --- | --- | --- | --- | --- |
| B1 | > 1000 |  |  |  |
| B2 | > 1000 | 1100 |  |  |
| B3 | 317 | 312 |  |  |
| B4 | 6.69 |  |  | Ki (Human EphA2 (Ecto) [3]): 6.69 nM |
| B5 |  |  | 29.7 |  |
| B6 |  |  | 0.64 |  |
| B7 |  |  | 28.4 |  |
| B8 |  |  | 1.38 |  |
| B9 |  |  | 1.48 |  |
| B10 | 108 | 238 |  |  |
| B11 | > 1000 | 1410 |  |  |
| B12 |  |  | 3.66 |  |
| B13 |  |  | 2.8 |  |
| B14 |  |  | 1.21 |  |
| B15 | 199 | 288 |  |  |
| B16 |  |  | 3.99 |  |
| B17 |  |  | 0.85 |  |
| B18 |  | 711 |  |  |
| B19 |  |  | 31.4 |  |

| Binder | Ki (Human EphA2 (Ecto) [1]) [nM] | Ki (Human EphA2 (Ecto) [2]) [nM] | Ki [4] [nM] | other results |
| --- | --- | --- | --- | --- |
| B20 | 124 | 194 |  |  |
| B21 |  |  | 0.91 |  |
| B22 |  |  | 1.07 |  |
| B23 |  | 1000 |  |  |
| B24 |  |  | 15.9 |  |
| B25 |  | 954 |  |  |
| B26 |  | 1500 |  |  |
| B27 | 394 |  |  | Ki (Human EphA2 (Ecto) [3]): 394 nM |
| B28 | 2 |  |  | Ki (Human EphA2 (Ecto) [3]): 2 nM |
| B29 | 14.9 |  |  | Ki (Human EphA2 (Ecto) [3]): 14.9 nM |
| B30 | 1.8 |  |  | Ki (Human EphA2 (Ecto) [3]): 1.8 nM |
| B31 |  |  | 0.46 |  |
| B32 |  |  | 1.93 |  |
| B33 |  |  | 0.37 |  |
| B34 |  |  | 1.55 |  |
| B35 |  | 886 |  |  |
| B36 |  |  | 1.11 |  |
| B37 |  | 265 |  |  |
| B38 |  |  | 0.59 |  |
